Assay results as given in patent US12344663B2, “Anti-C3 antibodies and antigen-binding fragments thereof and their uses for treating eye or ocular diseases” (CDR-Life AG, priority 2021, dated 2025).

Experiment: In vitro BrM permeation assay, Ussing chamber
Format: in vitro ADME, porcine
Details: 0.1 mg/ml, up to 72 h, in words
Method: Porcine Bruch's membrane samples are used for this measurement. Porcine eyes are collected from the slaughterhouse) no more than 6 hours after the animals were sacrificed and stored at 4° C. until use (on same day).
Preparation of enriched Bruch's Membrane (BrM): The eyes are placed into a disposable petri-dish and any residual tissue surrounding the eyeball is removed. The eyeball is incised next to the iris with a scalpel and the front part of the eye as well as lens, vitreous and retinal tissue are removed from the eyecup. […]
Sampling and membrane integrity analysis: For sampling at different timepoints (4 h, 24 h, 48 h and 72 h) the solution in the single compartments is mixed by carefully pipetting up and down and 90 μl were transferred separately from each sample and diffusate chamber to collection tubes. […] Accumulation of blue particles in the second compartment is observed and camera pictures are recorded to control for overall membrane integrity.
Sample analysis: 15 μl of each solution from the sample and diffusate chambers are effectively loaded on 2 precast polyacrylamide gels (NuPAGE Bis-Tris gels) together with a similar amount of stored mastermix as loading control. The first gel is analyzed by standard SDS-PAGE and Coomassie-based staining methods for protein detection (anti-C3 scFv). […]
Evaluation: Pictures of the SDS-gels are analyzed using ImageJ2 software (Fiji). […]

Gly-I-[CV-Trp(Me)-QDWGAHRC]-T-NH2 [Compound A2]
Diffusion/penetration through porcine Bruch's membrane: No penetration
